Measured values published in patent US20250263440A1, “CD38-BINDING AGENTS AND USES THEREOF” (PeptiDream Inc., priority 2019, published 2025).
Positions of bridges follow the written chain, without caps; N, C: chain ends. Non-standard residues stand in square brackets, D forms with d. Residues, ends and D or L forms follow the SMILES beside them. No end group written: not given here. Bip = N[C@@H](Cc1ccc(-c2ccccc2)cc1)C(=O)O; Nle(6-Ph) = N[C@@H](CCCCc1ccccc1)C(=O)O; Met(O2) = CS(=O)(=O)CC[C@H](N)C(=O)O; Arg(Me) = CNC(=N)NCCC[C@H](N)C(=O)O; NMeF = CN[C@@H](Cc1ccccc1)C(=O)O; hArg = N=C(N)NCCCC[C@H](N)C(=O)O; Ahp(2) = CCCCC[C@H](N)C(=O)O

B1: I-1 analogue with Ala at position 12 (A R Ahp Y H D G V L Bph Ahp A C) (peptide)
peptide: {CH2CO}-AR[Ahp(2)]YHDGVL[Bip][Ahp(2)]AC
modifications: thioether N-13
B2: I-1 analogue with Ala at position 10 (A R Ahp Y H D G V L A Ahp D C) (peptide)
peptide: {CH2CO}-AR[Ahp(2)]YHDGVLA[Ahp(2)]DC
modifications: thioether N-13
B3: I-1 analogue with Ala at position 11 (A R Ahp Y H D G V L Bph A D C) (peptide)
peptide: {CH2CO}-AR[Ahp(2)]YHDGVL[Bip]ADC
modifications: thioether N-13
B4: I-1 analogue with Ala at position 3 (A R A Y H D G V L Bph Ahp D C) (peptide)
peptide: {CH2CO}-ARAYHDGVL[Bip][Ahp(2)]DC
modifications: thioether N-13
B5: I-2 analogue with Ala at position 2 (A A H MeF V L P Bph V W V C) (peptide)
peptide: {CH2CO}-AAH[NMeF]VLP[Bip]VWVC
modifications: thioether N-12
B6: I-2 analogue with Ala at position 3 (A L A MeF V L P Bph V W V C) (peptide)
peptide: {CH2CO}-ALA[NMeF]VLP[Bip]VWVC
modifications: thioether N-12
B7: I-2 analogue with Ala at position 4 (A L H A V L P Bph V W V C) (peptide)
peptide: {CH2CO}-ALHAVLP[Bip]VWVC
modifications: thioether N-12
B8: I-2 analogue with Ala at position 5 (A L H MeF A L P Bph V W V C) (peptide)
peptide: {CH2CO}-ALH[NMeF]ALP[Bip]VWVC
modifications: thioether N-12
B9: I-2 analogue with Ala at position 6 (A L H MeF V A P Bph V W V C) (peptide)
peptide: {CH2CO}-ALH[NMeF]VAP[Bip]VWVC
modifications: thioether N-12
B10: I-2 analogue with Ala at position 7 (A L H MeF V L A Bph V W V C) (peptide)
peptide: {CH2CO}-ALH[NMeF]VLA[Bip]VWVC
modifications: thioether N-12
B11: I-2 analogue with Ala at position 8 (A L H MeF V L P A V W V C) (peptide)
peptide: {CH2CO}-ALH[NMeF]VLPAVWVC
modifications: thioether N-12; also: structure as I-2
B12: I-2 analogue with Ala at position 9 (A L H MeF V L P Bph A W V C) (peptide)
peptide: {CH2CO}-ALH[NMeF]VLP[Bip]AWVC
modifications: thioether N-12
B13: I-2 analogue with Ala at position 10 (A L H MeF V L P Bph V A V C) (peptide)
peptide: {CH2CO}-ALH[NMeF]VLP[Bip]VAVC
modifications: thioether N-12
B14: I-2 analogue with Ala at position 11 (A L H MeF V L P Bph V W A C) (peptide)
peptide: {CH2CO}-ALH[NMeF]VLP[Bip]VWAC
modifications: thioether N-12

What follows are molecules tested against T1, Recombinant human CD38 protein (R&D Systems) (human, UniProt P28907 43-300) (assay: ELISA). Settings: not given.

Question: With B1 as the molecule, how does the “Binding Assay (larger values indicate stronger binding)” value (from here on “Binding Assay”) read?
Answer: Its value is 1.79.

Question: With B2 as the molecule, how does the “Binding Assay” value read?
Answer: The value was 0.09.

Question: B3 was tested. Which “Binding Assay” value did it give?
Answer: Its value is 0.2.

Question: Which “Binding Assay” value does the source give for B4 here?
Answer: The value was 0.11.

Each molecule was assayed against His-tagged CD38 (Homo sapiens, UniProt P28907) (assay: SPR assay (Biacore S200, Sensor Chip NTA, single-cycle kinetics) of SEQ ID NO.1 variants against His-tagged CD38). Settings: SPR Biacore S200, His-tagged CD38; calculated from ka and kd.
Type: binding
Procedure: SPR assay was performed using Biacore S200 (Cytiva: Former GE Healthcare).
After the equilibration of Series S Sensor Chip NTA (produced by Cytiva: Former GE Healthcare) with Running Buffer (10 mM HEPES pH7.4, 150 mM NaCl, 0.05% Tween 20), followed by injection of 350 mM EDTA at a flow rate of 10 L/min for 60 seconds and […] NiCl2 at a flow rate of 10 L/min for 60 seconds, then 3 mM EDTA at a flow rate of 10 L/min for 120 seconds, sequently, to wash the sensor chip.
EDC/NHS mixture was injected at a flow rate of […] for 7 minutes to thereby activate the functional groups on sensor chip. His-tagged CD38 in Running Buffer (10 mM HEPES pH7.4, 150 mM NaCl, 0.05% Tween 20) was injected immobilized to at a flow rate of […]. For 7 minutes to immobilize the CD38 on the substrate surfaces of the sensor chip. Then Ethanolamine was injected at a flow rate of […] for 7 minutes.
1.0 M Ethanolamine(aq.) was injected at a flow rate of 10 L/min for 420 seconds for capping. 10 mM peptides (which were synthesised described above) in DMSO were diluted to obtain 10 uM with Running Buffer, and prepared 100 nM, 50 nM, 25 nM, 10 nM, 5 nM of each peptide's solutions (Peptide Samples).
Using these Peptide Samples, kinetics of peptides against His-tagged CD38 was measured. The method adopted for sample measurement was a single-cycle kinetics method. The analysis was conducted using the evaluation software 1.1 provided with Biacore S200. A DMSO correction curve obtained by solvent correction measurements was applied for the analysis. Kinetics fitting was done on the difference data obtained by subtracting the baseline data from sample measurement data.
KD values were calculated based on the association rate constant (ka) and dissociation rate constant (kd).

Question: For `CCCCC[C@@H]1NC(=O)[C@H](CCCNC(=N)N)NC(=O)[C@H](C)NC(=O)CSC[C@@H](C(N)=O)NC(=O)[C@H](CC(=O)O)NC(=O)[C@H](CCCCC)NC(=O)[C@H](Cc2ccc(-c3ccccc3)cc2)NC(=O)[C@H](CCS(C)(=O)=O)NC(=O)[C@H](C(C)C)NC(=O)[C@H](CCCCNC(=N)N)NC(=O)[C@H](CC(=O)O)NC(=O)[C@H](Cc2c[nH]cn2)NC(=O)[C@H](Cc2ccc(O)cc2)NC1=O` [compound 16] ({CH2CO}-AR[Ahp(2)]YHD[hArg]V[Met(O2)][Bip][Ahp(2)]DC-NH2; thioether N-13), which Kd is on record?
Answer: Its Kd is 17.3 nM.

Question: How did the Kd turn out when `CCCCC[C@@H]1NC(=O)[C@H](CCCNC(=N)NC)NC(=O)[C@H](C)NC(=O)CSC[C@@H](C(N)=O)NC(=O)[C@H](CC(=O)O)NC(=O)[C@H](CCCCc2ccccc2)NC(=O)[C@H](Cc2ccc(-c3ccccc3)cc2)NC(=O)[C@H](CC(C)C)NC(=O)[C@H](C(C)C)NC(=O)[C@H](CCC(=O)O)NC(=O)[C@H](CC(=O)O)NC(=O)[C@H](Cc2c[nH]cn2)NC(=O)[C@H](Cc2ccc(O)cc2)NC1=O` [compound 30] ({CH2CO}-A[Arg(Me)][Ahp(2)]YHDEVL[Bip][Nle(6-Ph)]DC-NH2; thioether N-13) was run?
Answer: Its Kd is 3.1 nM.

Same assay, conditions: SPR Biacore S200, NTA chip, His-tagged CD38; read-out: Ka (association rate constant)

Question: `CCCCC[C@@H]1NC(=O)[C@H](CCCNC(=N)N)NC(=O)[C@H](C)NC(=O)CSC[C@@H](C(N)=O)NC(=O)[C@H](CC(=O)O)NC(=O)[C@H](CCCCC)NC(=O)[C@H](Cc2ccc(-c3ccccc3)cc2)NC(=O)[C@H](CCS(C)(=O)=O)NC(=O)[C@H](C(C)C)NC(=O)[C@H](CCCCNC(=N)N)NC(=O)[C@H](CC(=O)O)NC(=O)[C@H](Cc2c[nH]cn2)NC(=O)[C@H](Cc2ccc(O)cc2)NC1=O` [compound 16] ({CH2CO}-AR[Ahp(2)]YHD[hArg]V[Met(O2)][Bip][Ahp(2)]DC-NH2; thioether N-13) was tested. Which kon did it give?
Answer: The kon was 870000 M⁻¹ s⁻¹.

Question: For `CCCCC[C@@H]1NC(=O)[C@H](CCCNC(=N)NC)NC(=O)[C@H](C)NC(=O)CSC[C@@H](C(N)=O)NC(=O)[C@H](CC(=O)O)NC(=O)[C@H](CCCCc2ccccc2)NC(=O)[C@H](Cc2ccc(-c3ccccc3)cc2)NC(=O)[C@H](CC(C)C)NC(=O)[C@H](C(C)C)NC(=O)[C@H](CCC(=O)O)NC(=O)[C@H](CC(=O)O)NC(=O)[C@H](Cc2c[nH]cn2)NC(=O)[C@H](Cc2ccc(O)cc2)NC1=O` [compound 30] ({CH2CO}-A[Arg(Me)][Ahp(2)]YHDEVL[Bip][Nle(6-Ph)]DC-NH2; thioether N-13), which kon is on record?
Answer: Its kon is 350000 M⁻¹ s⁻¹.

Question: How did the kon turn out when `CCCCC[C@@H]1NC(=O)[C@H](CCCNC(=N)N)NC(=O)[C@H](C)NC(=O)CSC[C@@H](C(N)=O)NC(=O)[C@H](CC(=O)O)NC(=O)[C@H](CCCCC)NC(=O)[C@H](Cc2ccc(-c3ccccc3)cc2)NC(=O)[C@H](CCS(C)(=O)=O)NC(=O)[C@H](C(C)C)NC(=O)[C@H](CCC(=O)O)NC(=O)[C@H](CC(=O)O)NC(=O)[C@H](Cc2c[nH]cn2)NC(=O)[C@H](Cc2ccc(O)cc2)NC1=O` [compound 14] ({CH2CO}-AR[Ahp(2)]YHDEV[Met(O2)][Bip][Ahp(2)]DC-NH2; thioether N-13 (inferred); N-terminus and C-terminus assumed) was run?
Answer: The kon was 570000 M⁻¹ s⁻¹.

Same assay, conditions: SPR Biacore S200, NTA chip, His-tagged CD38; read-out: Kd (dissociation rate constant)

Question: How did the koff turn out when `CCCCC[C@@H]1NC(=O)[C@H](CCCNC(=N)N)NC(=O)[C@H](C)NC(=O)CSC[C@@H](C(N)=O)NC(=O)[C@H](CC(=O)O)NC(=O)[C@H](CCCCC)NC(=O)[C@H](Cc2ccc(-c3ccccc3)cc2)NC(=O)[C@H](CCS(C)(=O)=O)NC(=O)[C@H](C(C)C)NC(=O)[C@H](CCCCNC(=N)N)NC(=O)[C@H](CC(=O)O)NC(=O)[C@H](Cc2c[nH]cn2)NC(=O)[C@H](Cc2ccc(O)cc2)NC1=O` [compound 16] ({CH2CO}-AR[Ahp(2)]YHD[hArg]V[Met(O2)][Bip][Ahp(2)]DC-NH2; thioether N-13) was run?
Answer: The koff was 0.015 s⁻¹.

Question: With `CCCCC[C@@H]1NC(=O)[C@H](CCCNC(=N)NC)NC(=O)[C@H](C)NC(=O)CSC[C@@H](C(N)=O)NC(=O)[C@H](CC(=O)O)NC(=O)[C@H](CCCCc2ccccc2)NC(=O)[C@H](Cc2ccc(-c3ccccc3)cc2)NC(=O)[C@H](CC(C)C)NC(=O)[C@H](C(C)C)NC(=O)[C@H](CCC(=O)O)NC(=O)[C@H](CC(=O)O)NC(=O)[C@H](Cc2c[nH]cn2)NC(=O)[C@H](Cc2ccc(O)cc2)NC1=O` [compound 30] ({CH2CO}-A[Arg(Me)][Ahp(2)]YHDEVL[Bip][Nle(6-Ph)]DC-NH2; thioether N-13) as the molecule, how does the koff read?
Answer: Its koff is 0.0011 s⁻¹.

Question: For `CCCCC[C@@H]1NC(=O)[C@H](CCCNC(=N)N)NC(=O)[C@H](C)NC(=O)CSC[C@@H](C(N)=O)NC(=O)[C@H](CC(=O)O)NC(=O)[C@H](CCCCC)NC(=O)[C@H](Cc2ccc(-c3ccccc3)cc2)NC(=O)[C@H](CCS(C)(=O)=O)NC(=O)[C@H](C(C)C)NC(=O)[C@H](CCC(=O)O)NC(=O)[C@H](CC(=O)O)NC(=O)[C@H](Cc2c[nH]cn2)NC(=O)[C@H](Cc2ccc(O)cc2)NC1=O` [compound 14] ({CH2CO}-AR[Ahp(2)]YHDEV[Met(O2)][Bip][Ahp(2)]DC-NH2; thioether N-13 (inferred); N-terminus and C-terminus assumed), which koff is on record?
Answer: The koff was 0.022 s⁻¹.

Target: T1, Recombinant human CD38 protein (R&D …)
Experiment: ELISA
Settings: not given
Remark: another data set of the same source

Question: How did the “Binding Assay” value turn out when B5 was run?
Answer: The value was 0.84.

Question: For B6, which “Binding Assay” value is on record?
Answer: Its value is 0.37.

Question: For B7, which “Binding Assay” value is on record?
Answer: Its value is 0.1.

Question: For B8, which “Binding Assay” value is on record?
Answer: Its value is 0.47.

Question: With B9 as the molecule, how does the “Binding Assay” value read?
Answer: The value was 0.09.

Question: How did the “Binding Assay” value turn out when B10 was run?
Answer: Its value is 0.11.

Question: For B11, which “Binding Assay” value is on record?
Answer: Its value is 0.09.

Question: Which “Binding Assay” value does the source give for B12 here?
Answer: Its value is 0.12.

Question: How did the “Binding Assay” value turn out when B13 was run?
Answer: Its value is 0.1.

Question: For B14, which “Binding Assay” value is on record?
Answer: Its value is 0.41.
